Results on one molecule are retold here after patent publication US20260185163A1 (Dana-Farber, published 2026).

Common to all, as to experiment: fluorescence polarization; 1 nM FITC-MLL1 4-43(C-A) probe titrated with StrepII-Avi-TEV-Menin; one site total fit; mean±S.D., N=3
Background: Polarisation of emitted light reports the rotation of a fluorescent probe.

The target of experiment [1] is T1, StrepII-Avi-TEV-Menin (wild-type human Menin, recombinant, E. coli) (human, UniProt O00255 1-610).
T1 construct: also called WT Menin; WT-Menin
T1 sequence: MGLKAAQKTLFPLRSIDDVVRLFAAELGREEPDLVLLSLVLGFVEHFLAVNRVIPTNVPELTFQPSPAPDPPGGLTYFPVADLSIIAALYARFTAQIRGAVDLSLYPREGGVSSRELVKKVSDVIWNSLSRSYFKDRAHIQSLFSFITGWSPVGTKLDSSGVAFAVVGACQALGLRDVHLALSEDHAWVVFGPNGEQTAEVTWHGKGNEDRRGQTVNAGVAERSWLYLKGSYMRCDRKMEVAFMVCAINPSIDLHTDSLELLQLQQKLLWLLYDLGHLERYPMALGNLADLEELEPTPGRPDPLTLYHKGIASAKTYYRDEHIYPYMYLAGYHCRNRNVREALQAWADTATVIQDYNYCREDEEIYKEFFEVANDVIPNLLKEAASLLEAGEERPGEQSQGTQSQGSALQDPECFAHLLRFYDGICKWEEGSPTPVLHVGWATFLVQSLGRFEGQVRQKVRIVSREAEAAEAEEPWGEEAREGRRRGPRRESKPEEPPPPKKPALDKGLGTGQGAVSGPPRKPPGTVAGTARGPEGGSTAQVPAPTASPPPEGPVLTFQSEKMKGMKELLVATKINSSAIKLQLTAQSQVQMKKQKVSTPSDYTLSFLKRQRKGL
The procedure:
(§1) To derive the FITC-MLL1₄₋₄₃(C-A) peptide Kd. FITC-conjugated MLL1₄₋₄₃(C-A) peptide probe at final concentration of 1 nM was mixed with increasing concentration of purified StrepII-Avi-TEV-Menin (5 μM final top concentration, 2-fold, 23-point dilution and a buffer control) in an assay buffer (50 mM Tris pH 7.5, 200 mM NaCl, 0.1% Pluronic F-68 solution (Sigma)) in 384-well microplates at 15 μL assay volume (Corning, 4514) and incubated for 30 min at room temperature (RT). For all assays change in fluorescence polarization was monitored using a PHERAstar FS microplate reader (BMG Labtech). […] In competitive titration experiments Menin proteins (1 nM WT, 1 nM M327I or 3 nM for T349M) and 1 nM FITC-conjugated MLL1₄₋₄₃(C-A) peptide probe were incubated in an assay buffer for 30 min. SNDX-5613 was then dispensed to 384-well microplate (Corning, 4514) containing 15 μL of the assay mix using D300e Digital Dispenser (HP) and normalized to 1% DMSO followed by 90 min incubation. The fluorescence polarization was monitored by PHERAstar FS microplate reader (BMG Labtech). The MLL1₄₋₄₃(WT) and MLL1₄₋₄₃(C-A) peptide titrations were performed by addition of 7.5 μL of 2-fold 23-point serial dilution into 7.5 μL of assay mix with the final concentrations of 1 nM FITC-conjugated MLL₄₋₄₃ peptide probe, 1 nM WT Menin or 1 nM Menin M327I or 3 nM Menin T349M in assay buffer. The fluorescence polarization was monitored by PHERAstar FS microplate reader (BMG Labtech). For analysis of the competitive titration experiments the last 10 cycles of the data were averaged to obtain technical replicates. Data from three independent replicates (n=3) was plotted and IC₅₀ values estimated using variable slope equation in GraphPad Prism 9. The calculation of Kᵢ values was performed using Kᵢ calculator available at websites.umich.edu/˜shaomengwanglab/software/calc_ki/index.html²³.

Experiment [2] concerns the target T2, StrepII-Avi-TEV-Menin M327I (recombinant mutant human Menin) (human, UniProt O00255 1-610).
T2 construct: The mutant plasmid was made from the wild-type StrepII-Avi-TEV Menin construct; also called M327I-mutant Menin; M327I Menin
T2 sequence: T1 sequence with M327I
The procedure:
as §1

Experiment [3] has as its target T3, StrepII-Avi-TEV-Menin T349M (recombinant mutant human Menin) (human, UniProt O00255 1-610).
T3 construct: The mutant plasmid was made from the wild-type StrepII-Avi-TEV Menin construct; also called T349M-mutant Menin; T349M Menin
T3 sequence: T1 sequence with T349M
On the procedure:
as §1

Changes are numbered by the printed parent chain. Ends that are not written are not given here. * marks the point of attachment. FITC = O=C1OC2(c3ccc(O)cc3Oc3cc(O)ccc32)c2ccc(NC(=S)*)cc21

B1: N-terminal FITC-conjugated MLL1 4-43(C-A) peptide probe (peptide)
peptide: {FITC}-SARWRFPARPGTTGGGGGGGRRGLGGAPRQRVPALLLPPGY
modifications: not fully specified
notes: also called FITC-MLL14-43(C-A) peptide; MLL1 peptide
Consider B1, for which the Kd in experiment [1] was found to be 0.76 nM; in experiment [2], 0.91 nM; in experiment [3] it was 2.99 nM.

The term Kd denotes the concentration at which binding is half-saturated.
